Reference: the nanobody polyreactivity screen of Harvey et al. (2022)

Test: yeast display, Sf9 membrane polyspecificity reagent, FACS + sequencing; frameworks hold sequencing errors
Summary of the method: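 Sorting gates, low and high (top ~1%), were placed on anti-HA fluorescence to track expression and on streptavidin fluorescence to track reagent binding. A clone's polyreactivity label is taken from the gate it came out of. The reagent was 10% biotinylated, detergent-solubilized Sf9 membrane, applied for 1 hour at 4 °C to galactose-induced yeast display cells.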

Row | Sequence | polyreactivity (PSR sort gate)
1 | QVQLQESGGGLVQAGGSLRLSCAASGSIFDYVSMGWYRQAPREERELVVTITLGSNTYYADSVKGRFTISSDIGKNTVYLQMNSLNPEDTAVYYCAASALWGYVYPYWGLGTQVTVSS | high polyreactivity
2 | QVQLQESGGGLVQAGGSLRLSCAASGSIFEELDMGWYRQAPGKEREFVAANGTGSTTYYADSVKGRFTISRDNAKNTVYLQMNSLKPEVTAVYYCAVTYSVYLPFRYWGQGTQVTVSS | high polyreactivity
3 | QVQLQESGGGLVQAGGSLRLSCAASGSIFKVVDMGLYRQAPGKEREFVATNGEGGNTYSADSVKGRFTISRDNAKNTVYRQMNSLKPEATAVYFYAVVLGTSYRYTYWGQGTQVTVSS | low polyreactivity
4 | QVQLQESGGGLVQAGGSLRLSCAASGSIFVSVTMGWYRQAPGKERELVASIGRGSTTNHADSVKGRFTISRDNAKNIVYLLMNSLKPEDTEVYYCAALESYGKYHGYWGQGTQVTVSS | low polyreactivity
5 | QVQLQESGGGLVQAGGSLRLSCAASGSISADGAMGWYRQAPGKEREFAASVNWGTNTNYADSVKGRFTISRDNAKNTLYLQMNRLKPEDTAVYYCAVLPDWETRHDYWGHGTQVTVSS | low polyreactivity
6 | QVQLQESGGGLVQAGGSLRLSCAASGSISRYYDMGLYRQAPGKEREFVAGISGGAITYYADSVKGRFTISRDNAKNTVYLQMNSLKPVDTAVYYCAADTGVYQYHSYWGQGTQVTVSS | low polyreactivity
7 | QVQLQESGGGLVQAGGSLRLSCAASGSISRYYDMGWYRQAPGKELEFVAGISGGAITYYADSVKGRFTISRDNAKNTVYLQMNSLKPEDTAVYYCAADTGVYQYHSYWGQGTQVTVSS | low polyreactivity
8 | QVQLQESGGGLVQAGGSLRLSCAASGSISSRDAMGWYRQAPGKEREFVATIASGTTTYYADSVKGSFTISRDNAENTVYLQTNSLKPEDTAVYYCAAPTIQIYPFYYWGQGTQVTVSS | high polyreactivity
9 | QVQLQESGGGLVQAGGSLRLSCAASGSNFDTPTMGWYRQAPGKERELVASIAYDDNTYYADSVKGRFTISRYNAKNTVYLQMNSLKPGDTAVYYCAVTDRIYYYFVYWGQGTRVTVSS | high polyreactivity
10 | QVQLQESGGGLVQAGGSLRLSCAASGSNFDTPTMGWYRQAPGKERELVASSAYDDNTYYADSVKGRFTISRYNAKNTVYLQRNSLKPGDTAVYYCAVTDRIYYYFVYWGQGTRVTVSS | high polyreactivity
11 | QVQLQESGGGLVQAGGSLRLSCAASGTIFTARFMGWYRQAPGKERELVATITDGGNTNHADSVKGRFTISRDNAKNTVYLQMNSLKPEDAAVYYFAAGEVDNDTLLYWGQGSQVTVSS | low polyreactivity
12 | QVQLQESGGGLVQAGGSLRLSCAASGTIFWLWAMGRYCQAPGQDRELVASISSGGTTYHADSVKGRFTISRDKAKNPVYRQMNSVKPEDTAVYYRAAFYVATAKLGYWGQGSQVTVSS | low polyreactivity
13 | QVQLQESGGGLVQAGGSLRLSCAASGTIFYKDDMGWYRQAPGKEREFVAGIDRGGTTNCAGSVKGRFTISRDNAKNTVYLQMISLKPEDTAVYYCAAYYPDIYPFIYRGQGTQVTVSS | high polyreactivity
14 | QVQLQESGGGLVQAGGSLRLSCAASGTILYSLGMGWYRQAPGKRREFVASITWGTTTNYAESVKGRFTISRDNAKNTVYPQMNSLKPEDTAVYDCAAPPFGDSSYHYWGQGTQVTVSS | low polyreactivity
15 | QVQLQESGGGLVQAGGSLRLSCAASGTISDRAGMGWYRQAPAKNAIVATIDRGTNTNYADSVKGRFTISRDNAKNTVYLQMNSLKPEDTAVYNCAAVGRYYIYLDYWGQGTQVTVSS | low polyreactivity
16 | QVQLQESGGGLVQAGGSLRLSCAASGTISPLPAMGWYRQAPGKEREFVAGIDTGAITNYADSVKGRFTISRDNAKNTVYLQMNSLKPEDTAVYYCAVFQAAYDYYERYYTYWGQGTQVTVSS | low polyreactivity
17 | QVQLQESGGGLVQAGGSLRLSCAASGTISPLPAMGWYRQAPGKEREFVPGIDTGAITNYADSVKGRFTISRDNAKNTVYLQMNSLKPEDTAVYYCAVFPAAYDYYERYYTYWGQGTQVTVSS | low polyreactivity
18 | QVQLQESGGGLVQAGGSLRLSCAASGTISTDSYMGWYRQAPGKERKFVASIGYGGITYYADSVKGRSTISRDSAKNTVYLQMNSLKPEDTAVYYCAVNSYYPDHYWYWGRGTQVTVSS | high polyreactivity
